From US20220016165A1

Molecular target: interleukin-6 receptor (IL-6R) (human) (UniProt P08887)
Test: cell-based or functional assay

Chain of interleukin-6 receptor (IL-6R) (human) (P08887 20-468 limits assumed): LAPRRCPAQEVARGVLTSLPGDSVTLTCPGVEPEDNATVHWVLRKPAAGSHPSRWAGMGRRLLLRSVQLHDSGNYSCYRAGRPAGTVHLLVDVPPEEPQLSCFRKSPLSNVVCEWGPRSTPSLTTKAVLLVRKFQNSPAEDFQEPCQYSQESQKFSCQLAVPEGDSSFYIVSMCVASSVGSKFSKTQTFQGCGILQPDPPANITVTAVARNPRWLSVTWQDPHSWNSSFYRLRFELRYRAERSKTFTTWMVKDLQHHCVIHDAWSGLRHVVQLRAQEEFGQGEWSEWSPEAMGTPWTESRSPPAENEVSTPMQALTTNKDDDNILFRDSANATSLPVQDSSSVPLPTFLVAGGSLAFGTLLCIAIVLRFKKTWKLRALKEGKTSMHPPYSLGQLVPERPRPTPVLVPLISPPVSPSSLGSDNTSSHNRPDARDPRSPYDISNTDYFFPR

Substance: tocilizumab (antibody)
- median peak levels of serum IL-6 (day 3-5): 10 fold
